T1: human IL1RAcP domain 3 (AG-12127) (human)
T1 construct: also called domain 3 of human IL-1RAcP
T1 chain: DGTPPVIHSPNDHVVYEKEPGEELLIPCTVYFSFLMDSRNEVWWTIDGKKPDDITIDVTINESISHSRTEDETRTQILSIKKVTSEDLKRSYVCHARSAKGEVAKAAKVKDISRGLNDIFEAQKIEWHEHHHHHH

T2: human IL1RAcP domain 1 (AG-12335) (human)
T2 construct: also called domain 1 of human IL-1RAcP
T2 chain: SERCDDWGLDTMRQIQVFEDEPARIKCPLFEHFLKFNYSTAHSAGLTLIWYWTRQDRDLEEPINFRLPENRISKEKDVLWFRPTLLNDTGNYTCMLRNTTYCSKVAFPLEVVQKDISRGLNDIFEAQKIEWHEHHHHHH


Key:
[1] = molecular target: T1, human IL1RAcP domain 3 (AG-12127); test: ELISA on directly coated human IL-1RAcP domain 3 (AG-12127), IgG titrated, S/BG
[2] = molecular target: T3, hIL-1RAP(1-367)_F-chLys_Avi (human, biotinylated (Avi tag) in SPR and ELISA binning; unlabeled in SET); test: ELISA on human IL-1RAcP (AG-12210), IgG1f_AEASS titrated 0.007-200 nM, AP-coupled secondary antibody with AttoPhos, signal over background (S/BG)
T3 construct: also called human IL-1RAcP (AG-12210)
Description: (§1) Bound antibodies were detected using respective alkaline-phosphatase (AP) coupled secondary antibodies in combination with ‘AttoPhos’ fluorescence substrate. Multiple washing steps have been performed in between individual assay steps.

[3] = molecular target: T4, mouse (AG-12212) IL-1RAcP (mouse, UniProt Q61730 21-367, limits assumed); test: ELISA in Fc-capture mode of the IgGs, mouse IL-1RAcP (AG-12212), S/BG
T4 construct: Recombinant tagged antigen; also called recombinant mouse IL-1RAcP; mouse IL-1RAP
Description: as §1

[4] = molecular target: T5, cyIL-1RAP(1-367)_F-chLys_Avi (cynomolgus, biotinylated (Avi tag) in SPR; unlabeled in SET); test: solution equilibrium titration (SET), ECL read-out, IgG
T5 construct: cynomolgus IL-1RAcP (21-367) is UniProt A0A2K5X5J5; also called cynomolgus IL-1RAcP (AG-12211)
Protocol: (§2) MSD SulfoTAG™ NHS-Ester (Meso Scale Diagnostics) according to the manufacturer's instructions. […] Serial dilutions of unlabeled antigen were prepared, starting with a concentration at least 10 times higher than the expected KD. Wells without antigen were used to determine Bₘₐₓ values;
(§3) wells containing only assay buffer were used to determine background. […] MSD plates were coated with antigen on standard plates (30 μL per well). After washing the plate with PBS with 0.05% Tween 20, the equilibrated samples were transferred to the plates and incubated for 20 min. […] After washing the MSD plate and adding 30 μL/well MSD Read Buffer T with surfactant, electrochemiluminescence signals were detected using a MESO SECTOR S 600 (Meso Scale Diagnostics).
(§4) The data was evaluated with XLfit (IDBS) software applying customized fitting models.

[5] = molecular target: T3, hIL-1RAP(1-367)_F-chLys_Avi; test: as above
Protocol: as §2, §3, §4

[6] = molecular target: T2, human IL1RAcP domain 1 (AG-12335); test: ELISA on directly coated human IL-1RAcP domain 1 (AG-12335), IgG titrated, S/BG
Protocol: All were assessed with direct coating of the antigen. […] An anti-His antibody served as positive control.

[7] = molecular target: T5, cyIL-1RAP(1-367)_F-chLys_Avi; test: ELISA on cynomolgus IL-1RAcP (AG-12211), IgG1f_AEASS titrated 0.007-200 nM, AP-coupled secondary antibody with AttoPhos, signal over background (S/BG)
Description: as §1

human IL-1RAcP on cells [8] = molecular target: T6, human IL-1RAcP on cells (human, UniProt Q9NPH3 21-570); test: cell-based or functional assay
[9] = molecular target: cynomolgus IL-1RAcP on cells (cynomolgus, UniProt A0A2K5X5J5 21-570); test: cell-based or functional assay
[10] = molecular target: T7, human IL1RAcP domain 1/2 (AG-12337) (human); test: ELISA on directly coated human IL-1RAcP domain 1/2 (AG-12337), IgG1f_AEASS titrated, S/BG
T7 construct: also called domain 1/2 of human IL-1RAcP

human IL-1RAcP on cells [11] = molecular target: T6, human IL-1RAcP on cells; test: FACS on Flp-In CHO cells over-expressing human IL-1RAcP, IgG1f_AEASS titrated 1e-12 to 2e-7 M, median FL2-H over background
[12] = molecular target: T3, hIL-1RAP(1-367)_F-chLys_Avi; test: SET, ratio of KD values
[13] = molecular target: T5, cyIL-1RAP(1-367)_F-chLys_Avi; test: SET, ratio of KD values
recombinant rat IL-1RAcP = recombinant rat IL-1RAcP (rat, UniProt Q63621 21-367, limits assumed); test: ELISA (FIG. 1-3 cited)
[14] = molecular target: T3, hIL-1RAP(1-367)_F-chLys_Avi; test: ELISA binning; competitor: coated CAN04 FabCys-AviHis; 1.5 nM biotinylated human IL-1RAcP (AG-12210) pre-incubated with the titrated Fab; captured IL-1RAcP detected with streptavidin-AP
Protocol: (§5) Epitope binning was performed using an ELISA-based competition assay. The experiments were performed using either IgG1f_AEASS or FabCys-AviHis. Antibodies were diluted to three (3) nM (for IgGs) or to 20 nM (in case of Fabs) in PBS. […] The next day 90 μL/well blocking solution (5% BSA in PBS) was added to the plate followed by an incubation at RT for at least 1 h. During incubation, the competing antibodies, including reference and negative control antibodies, were diluted in assay buffer (1xPBS, 0.5% BSA, 0.02% Tween). […] Following the incubation of the blocking solution, the ELISA plates were washed 3× with PBST. Subsequently, 20 μl/well of the prepared antibody/antigen solution was transferred to the wells and incubated for 30 min with gentle agitation. Subsequently, plates were washed 3× using PBS-T.
(§6) For detection 20 μl of a prepared streptavidin-alkaline phosphatase conjugate solution was added to the wells in order to detect bound biotinylated human IL-1RAcP. Incubation happened for 30 min with gentle agitation. Following the incubation with streptavidin-alkaline phosphatase conjugate, assay plates were washed 5× with PBS-T. Then 20 μl of AttoPhos substrate (diluted 1:5 in H₂O) was added to the wells. Plates were incubated for 10 min at RT and readout happened using a Tecan M1000 Pro Reader.
(§7) Every graph represents an individual first antibody in the FabCys-AviHis format coated on the surface. […] Subsequently, preformed antigen antibody complex was added to the respective wells with the surface coated first antibody. Detection happened via the biotin of IL-1RAcP using a streptavidin-alkaline phosphatase conjugate.

[15] = molecular target: T3, hIL-1RAP(1-367)_F-chLys_Avi; test: SPR (Biacore), biotinylated antigen captured, FabCys-AviHis as analyte, 1:1 fit
Protocol: (§8) Approximately 3000 RU capture reagent was bound. This surface was used to load biotinylated antigen to generate a low-density surface for subsequent kinetic characterization (approx. 60-100 RU antigen loaded). […] After injecting the last and highest analyte concentration, a long dissociation phase was recorded. […] A blank injection of assay buffer (HBS-EP+) following the same injection pattern as described above was recorded and subtracted from specific sensorgrams during analysis (double referencing). At the end of each cycle, the sensor was regenerated with one 120 s injection of 6 M guanidine hydrochloride in 250 mM NaOH, which completely removed capture reagent with loaded biotinylated antigen and bound Fab fragments. The obtained sensorgrams were fitted to a monovalent binding model using Biacore Insight Evaluation Software. The obtained values for rate constants kₒₙ and koff were used to calculate KD.

[16] = molecular target: T5, cyIL-1RAP(1-367)_F-chLys_Avi; test: SPR (Biacore), biotinylated antigen captured, FabCys-AviHis as analyte, 1:1 fit; comment: Koff approaching assay limit
Protocol: as §8

[17] = molecular target: T5, cyIL-1RAP(1-367)_F-chLys_Avi; test: SPR (Biacore), biotinylated antigen captured, FabCys-AviHis as analyte, 1:1 fit; comment: Koff at assay limit
Protocol: as §8

[18] = molecular target: T3, hIL-1RAP(1-367)_F-chLys_Avi; test: ELISA binning; competitor: coated Y024149 FabCys-AviHis (sheet title Y024149_FAB COATED); 1.5 nM biotinylated human IL-1RAcP (AG-12210) pre-incubated with the titrated Fab; captured IL-1RAcP detected with streptavidin-AP
Protocol: as §5, §6, §7

[19] = molecular target: T3, hIL-1RAP(1-367)_F-chLys_Avi; test: ELISA binning; competitor: coated Y024148 FabCys-AviHis; 1.5 nM biotinylated human IL-1RAcP (AG-12210) pre-incubated with the titrated Fab; captured IL-1RAcP detected with streptavidin-AP
Protocol: as §5
For detection 20 μl of a prepared streptavidin-alkaline phosphatase conjugate solution was added to the wells in order to detect bound biotinylated human IL-1RAcP. Incubation happened for 30 min with gentle agitation. Following the incubation with streptavidin-alkaline phosphatase conjugate, assay plates were washed 5× with PBS-T. Then 20 μl of AttoPhos substrate (diluted 1:5 in H₂O) was added to the wells. Plates were incubated for 10 min at RT and readout happened using a Tecan M1000 Pro Reader. […]

[20] = molecular target: T3, hIL-1RAP(1-367)_F-chLys_Avi; test: ELISA binning; competitor: coated Y024084 FabCys-AviHis (sheet title Y024084_FAB COATED); 1.5 nM biotinylated human IL-1RAcP (AG-12210) pre-incubated with the titrated Fab; captured IL-1RAcP detected with streptavidin-AP
Protocol: as §5, §6, §7

binding result [1]	EC50 (read off the curve) [2]	binding result [3]	Kd [4]	Kd [5]	binding result [6]	EC50 (read off the curve) [7]	IC50, IFNγ release, PBMC stimulated with IL-1β (human IL-1RAcP on cells [8])	IC50, IFNγ release, PBMC stimulated with IL-33 (human IL-1RAcP on cells [8])	IC50, IL-8 release, HDFa stimulated with IL-1α (human IL-1RAcP on cells [8])	IC50, IL-8 release, HDFa stimulated with IL-36α (human IL-1RAcP on cells [8])	IC50, IL-8 release, HDFa stimulated with IL-36β (human IL-1RAcP on cells [8])	IC50, IL-8 release, HDFa stimulated with IL-36γ (human IL-1RAcP on cells [8])	IC50, IL-8 release, HEKa stimulated with IL-1β (human IL-1RAcP on cells [8])	IC50, IL-8 release, HEKa stimulated with IL-36β (human IL-1RAcP on cells [8])	IC50, IL-8 release, CyDFa stimulated with cynomolgus IL-1β [9]	EC50 (read off the curve) [10]	IC50 (read off the curve) [14]	Kd [15]	further results	Binder
no binding (tested: 2e-7 M)	0.1 to 0.2 nM	no binding (tested: 200 nM)	0.015 nM	0.011 nM	no binding (tested: 2e-7 M)	0.1 to 0.2 nM	5 nM	1.8 nM	24 nM	0.05 nM	0.15 nM	0.067 nM	162 nM	0.12 nM	0.48 nM	~4 nM	–	–	EC50 (read off the curve) (human IL-1RAcP on cells [11]): ~2 nM	R001032 (1A05) (antibody, human IgG1, kappa, V domains shown, Rabbit variable domains of prior art 1A05 on human IgG1 kappa constant regions with AEASS; also called P013.S.01.B.A05) VH: LEQSGGGAEGGLVKPGGSLELCCKASGFSLSTSYWRCWVRQAPGKGLEWIGCIYAGSGDVTYYANWVNGRFTLSRDIDQSTGCLQLNSLTAADTAMYYCASGVGFGYFNLWGQGTLVTVSS VL: ALVMTQTPSPVSAAVGGTVTINCQASEDIYSNLAWFQQKPGQPPKLLIYDASTLASGVPSRFSGSGSGTEFTLTISGLQSDDAATYYCLGVYTHISADNAFGGGTEVVVKR
no binding (tested: 2e-7 M)	0.1 to 0.2 nM	no binding (tested: 200 nM)	0.001 nM	0.002 nM	no binding (tested: 2e-7 M)	0.1 to 0.2 nM	1.2 nM	0.72 nM	1.2 nM	0.014 nM	0.039 nM	0.042 nM	35 nM	0.2 nM	0.043 nM	~6 nM	–	–	fold stronger KD than reference R001031 (CAN04) [12]: ~10.5 fold; fold stronger KD than reference R001032 (1A05) [12]: ~5.5 fold; fold stronger KD than reference R001031 (CAN04) [13]: ~16 fold; fold stronger KD than reference R001032 (1A05) [13]: ~15 fold; binding result (recombinant rat IL-1RAcP): no binding	Y024148_h_IgG1f_AEASS (antibody, V domains shown, Human IgG1f with AEASS effector-silencing residues, kappa light chain) VH: EVQLVESGGGLVQPGGSLRLSCAASGGTIGGSAVHWVRQAPGKGLVWVSRILTYSSTTQYAESVKGRFTISRDNAKNTLYLQMNSLRAEDTAVYYCARGSSEYPKFDIWGQGTLVTVSS VL: DIQMTQSPSTLSASVGDRVTITCRASQSISSWLAWYQQKPGKAPKLLIYDASSLESGVPSRFSGSGSGTEFTLTISSLQPEDFATYYCHQLLIYPHTFGQGTKVEIKR
–	–	–	–	–	–	–	–	–	–	–	–	–	–	–	–	–	~1 nM	0.018 nM	Kd [16]: 0.008 nM	Y024148_h_FabCys-AviH (Fab, V domains shown, Disulphide-linked Fab with Avi and His tags; also called Y024148 in FabCys-AviHis format) VH: EVQLVESGGGLVQPGGSLRLSCAASGGTIGGSAVHWVRQAPGKGLVWVSRILTYSSTTQYAESVKGRFTISRDNAKNTLYLQMNSLRAEDTAVYYCARGSSEYPKFDIWGQGTLVTVSS VL: DIQMTQSPSTLSASVGDRVTITCRASQSISSWLAWYQQKPGKAPKLLIYDASSLESGVPSRFSGSGSGTEFTLTISSLQPEDFATYYCHQLLIYPHTFGQGTKVEIKR
–	–	–	–	–	–	–	–	–	–	–	–	–	–	–	–	–	~1 nM	0.025 nM	Kd [17]: 0.006 nM; IC50 (read off the curve) [18]: ~0.7 nM; IC50 (read off the curve) [19]: ~0.7 nM; IC50 (read off the curve) [20]: ~0.7 nM	Y024149_h_FabCys-AviH (Fab, V domains shown, Disulphide-linked Fab with Avi and His tags; also called Y024149 in FabCys-AviHis format) VH: EVQLVESGGGLVQPGGSLRLSCAASGGTFGGSAMHWVRQAPGKGLVWVSRILTYGGIATYAESVKGRFTISRDNAKNTLYLQMNSLRAEDTAVYYCARGSSEYPKFDIWGQGTLVTVSS VL: DIQMTQSPSTLSASVGDRVTITCRASQSISSWLAWYQQKPGKAPKLLIYDASSLESGVPSRFSGSGSGTEFTLTISSLQPEDFATYYCHQLLIYPHTFGQGTKVEIKR

Source: patent US20220411517A1 (LEO PHARMA A S, published 2022)
